2 molecules from PMC10178869 can be followed below.

The target of assay [1] is AqpZ nanodiscs (AqpZ, MSP1E3D1 and DOPC/POPG 4:1) (E. coli | not stated) (UniProt P60844). Put plainly: mass photometry; 10 nM AqpZ nanodiscs in TEN buffer (300 mM NaCl); nanodisc with nanodisc.
The target of assay [2] is T1, E. coli Aquaporin Z (AqpZ) (E. coli), P60844.
T1 chain: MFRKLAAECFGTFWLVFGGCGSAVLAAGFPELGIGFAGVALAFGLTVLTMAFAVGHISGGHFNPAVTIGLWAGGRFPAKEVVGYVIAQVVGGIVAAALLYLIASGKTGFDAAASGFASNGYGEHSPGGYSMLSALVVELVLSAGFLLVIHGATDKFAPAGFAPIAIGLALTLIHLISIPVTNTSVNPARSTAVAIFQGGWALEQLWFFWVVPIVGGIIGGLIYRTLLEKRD
In words: SDS-PAGE with or without heating; purified AqpZ nanodiscs (ND) or AqpZ in OG micelles, heated to 70 °C or unheated. The note with it: remark: other sources report otherwise.

For orientation: stoichiometry N means the number of molecules, sites or subunits per partner or assembly. Turning to “AqpZ nanodiscs (AqpZ, MSP1E3D1 and DOPC/POPG 4:1) (from UniProt P60844 1-231) (complex)”, the stoichiometry N in assay [1] was 2.

B1: E. coli Aquaporin Z (AqpZ), P60844 1-231 (natural protein)
chain: MFRKLAAECFGTFWLVFGGCGSAVLAAGFPELGIGFAGVALAFGLTVLTMAFAVGHISGGHFNPAVTIGLWAGGRFPAKEVVGYVIAQVVGGIVAAALLYLIASGKTGFDAAASGFASNGYGEHSPGGYSMLSALVVELVLSAGFLLVIHGATDKFAPAGFAPIAIGLALTLIHLISIPVTNTSVNPARSTAVAIFQGGWALEQLWFFWVVPIVGGIIGGLIYRTLLEKRD
B1 yielded a stoichiometry N in assay [2] of 4.
